Laboratory results taken from the nanobody polyreactivity screen of Harvey et al. (2022).

Experiment: yeast display, Sf9 membrane polyspecificity reagent, FACS + sequencing; frameworks hold sequencing errors
Outline: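 After 36–48 hours of galactose induction, yeast (Saccharomyces cerevisiae BJ5465) displaying a synthetic nanobody library were stained at 4 °C for 1 hour with 10% biotinylated, detergent-solubilized Sf9 membrane reagent. Streptavidin microbeads enriched the stained cells before FACS sorting into low and high (top ~1%) gates on anti-HA and streptavidin fluorescence. Each clone's polyreactivity label reflects its gate of origin.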

Row | Sequence | polyreactivity (PSR sort gate)
1 | QVQLVESGGGLVQAGGSLRLSCAASGSIFFYYAMGWYRQAPGKERELVAAINSDGSTNYADSVKGRFTISRDNAKNTVFLQMNSLKPEDTAVYYCAAEWFPYRWGYGYWGQGTEVTVSS | low polyreactivity
2 | QVQLVESGGGLVQAGGSLRLSCAASGSIFFYYAMGWYRQAPGKERELVAAIRSGTSTNYADSVKGRFTISRDNAKNTVYLQMNSLKPEDTAVYYCAARFPGGGYGMDYWGQGTQVTVSS | low polyreactivity
3 | QVQLVESGGGLVQAGGSLRLSCAASGSIFFYYSMGWYRQAPGKERELVAAISLSGGRTYYADSVKGRSTISRDNAKNTVYLQMNSLKPEDTAVYYCNAASLSGRGQSYHYHGYDYWGQGTQVTVSS | high polyreactivity
4 | QVQLVESGGGLVQAGGSLRLSCAASGSIFFYYTMGWYRQAPGKERELVAAISVGGSTYYADSVKGRFTISRDNAKNTVYLQMNSLKPEDTAVYYCNAVPAKGYVTVVRYYYWGQGTQVTVSS | low polyreactivity
5 | QVQLVESGGGLVQAGGSLRLSCAASGSIFGAYAMGRYRQAPGKERELVAAITSGGSTNYADSVKGRFTISRDNAKNTVYLQMNSLKPEDTADYYCAARRRYAKFRYDYWGQGTQVTVSS | high polyreactivity
6 | QVQLVESGGGLVQAGGSLRLSCAASGSIFGAYAMGWYRQAPGKERELVAAISGSGTSTYYADSVKGRFTISRDNAKNTVYLQMYSLKPEDTAVYYCAADGTYFYIYLGDRFDYWGQGTQVTVSS | low polyreactivity
7 | QVQLVESGGGLVQAGGSLRLSCAASGSIFGAYAMGWYRQAPGKERELVAAITWRGGSTYYADSVKGRFTISRDNAKNTVYLQMNSLKPEDTAVYYCAARYLRPDGDALTRYGYWGQGTQVTVSS | high polyreactivity
8 | QVQLVESGGGLVQAGGSLRLSCAASGSIFGAYAMGWYRQAPGKERELVAVISRSGGRTYYADSVKGRFTISRDNAKNTVYLQMNSLKPEDTAVYYCAASYPVPPYGMDYWGQGTQVTVSS | high polyreactivity
9 | QVQLVESGGGLVQAGGSLRLSCAASGSIFGAYAMGWYRQAPGKESELVAVIRWGGGSTYADSVKGRFTISRDNAKNTVYLQMNSLKPEDTAVYYCNRDKSWADLYSHAYDYWGQGTQVTVSS | low polyreactivity
10 | QVQLVESGGGLVQAGGSLRLSCAASGSIFGAYTMGGYRQAPGKERELVAAITWSGGCTYYADSVKGRFTISRDNAKNTVYLQMNSLKPEDTAVYYCAAVFLRARYKYNYWGQGTQVTVSS | high polyreactivity
11 | QVQLVESGGGLVQAGGSLRLSCAASGSIFGDYAMGWYRQAPGKERELVAAIRYIGVSTYYADSVKGRFTISRDNAKNTVYLQMNSLKPEDTAVYYCAAEVYYEYYYWRYYWGQGTQVTVSS | high polyreactivity
12 | QVQLVESGGGLVQAGGSLRLSCAASGSIFGDYAMSWYRQAPGKERELVATITWIGGSTYYADSVKGRFTISRDNAKNTVYLQMNSLKPADTAVYYCAIYMGSYRLDYWGQGPQVTVSS | low polyreactivity
13 | QVQLVESGGGLVQAGGSLRLSCAASGSIFGDYVMGWYRQAPGKERELVAAINRGGSTYYADSVKARFTISRDNAKNTVYLQMNSLKPEDTAVYYCAAGYPSWYYGYPYDSWGQGTQVTVSS | low polyreactivity
14 | QVQLVESGGGLVQAGGSLRLSCAASGSIFGENAMGWDRQAPGKERELVAAITSGGSTDYADSVKGRFTISRDNAKNTVYLQMNSLKPEDTAVYYCAASGRVGPGYWYDSWGQGTQVTVSS | low polyreactivity
15 | QVQLVESGGGLVQAGGSLRLSCAASGSIFGENAMGWYRQATGKERELVAAITWGGTSTYYADSVKGRYTISRDNAKNTVYLQMNSLKPEDTAVYYCNTPRYVRRQGVKRYDYWGQGTQVTVSS | low polyreactivity
16 | QVQLVESGGGLVQAGGSLRLSCAASGSIFGEYAMGWSRQAPGKERELVATIRQSGDSTYYADSVKGRFTISRDNAKNTVYLQMNSLKPEDTEVYYCADDLWLYDYYSEYDYWGQGTQVTVSS | low polyreactivity
17 | QVQLVESGGGLVQAGGSLRLSCAASGSIFGFNAMGWYRQAPGKEREFVAAISKSGGSTYYADSVKGRFTISCDNAKNTVYLQMNSLKPEDTAVYYCNAKSRHYEPYDYWGQGTQVTVSS | high polyreactivity
18 | QVQLVESGGGLVQAGGSLRLSCAASGSIFGFNAMGWYRQAPGTERELVAAITWSGVSTYYADSVKGRFTISRDNAKNTVYLQMNSLKPEDTAVYYCAADVIIDWWYEMDYWGQGTQVTVSS | high polyreactivity
19 | QVQLVESGGGLVQAGGSLRLSCAASGSIFGFNAMGWYRQARGKERELVAAINNGGSTNYADSVKGRFTISRDNAKNTVYLQMNSLKPEDTAVYYCAARLNYIRRGYWGQGTQVTVSS | high polyreactivity
20 | QVQLVESGGGLVQAGGSLRLSCAASGSIFGFNAMGWYSQAPGKEREMVAAINNGGSTNYADSVKGRFTISRDNAKNTVYLQMNSLKPEDTAVYYCAAVRFRPRRNEYWGQGTQVTVSS | high polyreactivity
21 | QVQLVESGGGLVQAGGSLRLSCAASGSIFGFYAMGWYRQAPGKERELVAAITFSGGSTDYADSVKGRFTISRDNAKNTVYLQMNSLKPEDTAVYYCAARGYAIYSYWYYEPYDYWGQGTQVTVSS | high polyreactivity
22 | QVQLVESGGGLVQAGGSLRLSCAASGSIFGFYAMGWYRQAPGKERELVAGISYGDSSTYYADSVKGRFTISRDNAKNTVYLQMNSLKPEDTAVYYCAAGHRQKYNWGRYDYWGQGTQVTVSS | low polyreactivity

Row | Sequence | polyreactivity (PSR sort gate)
23 | QVQLVESGGGLVQAGGSLRLSCAASGSIFGGNAMGWYRQAPGKERELVATIDFSGTSTYYADSVKGRFTISRDNAKITVYLQMNSLKPEDTAVYYCAVRSGYVNRRYDYWGQGTQVTVSS | low polyreactivity
24 | QVQLVESGGGLVQAGGSLRLSCAASGSIFGGYAMGWYRPAPGKERELVASITKSGDSTYADSVKGRFTISRDNAKNTVYLQMNSLKPEDTAVYDCAADSTFGKFEYWGQGTQVTVSS | low polyreactivity
25 | QVQLVESGGGLVQAGGSLRLSCAASGSIFGGYAMGWYRQAPGKERELVAAISSGGSTYYADSVKGRFTISRDNAKNTVYLQMNSLKPEDTAVYYCATSTYAYRRNSYDYTRPRFGYWGQGTQVTVSS | high polyreactivity
26 | QVQLVESGGGLVQAGGSLRLSCAASGSIFGGYAMGWYRQAPGKERELVAAISVSDDITYYADSVKGRFTISRDNAKNTVYLQMNSLKPEDTAVYYCAAEPDTNYVVRYDYWGQGTQVTVSS | high polyreactivity
27 | QVQLVESGGGLVQAGGSLRLSCAASGSIFGGYTMGWSRQAPGKERELVAGITISGGSTYYADSVKGRFTISRDNAKNTVYLQMNSLKPEDTAVYYCAAVSFVVSSWGYGYWGQGTQVTVSS | low polyreactivity
28 | QVQLVESGGGLVQAGGSLRLSCAASGSIFGGYTMGWYRQAPGKERELVAAISARGGNTYYADSVKGRFTISRDNAKNTVYLQMNSLKPEDTAVYYCAKVRYTQSYRVYGYWGQGTQVTVSS | high polyreactivity
29 | QVQLVESGGGLVQAGGSLRLSCAASGSIFGINAMGWYRQAPGKERELVAAITWSGGSTFYADSVKGRFTISRDNAKNTVYLQMTRLKPEDTAVYYCAADSGREPKGPSRLTYWGQGTQVTVSS | high polyreactivity
30 | QVQLVESGGGLVQAGGSLRLSCAASGSIFGIYAMGWYRQAPGKERELVAAISSSGSTNYADSVKGRFTISRDNAKNTVYLQMNSLKPEDTAVYYCAAEQLSARWAYYYWGQGTQVTVSS | low polyreactivity
31 | QVQLVESGGGLVQAGGSLRLSCAASGSIFGIYVMGWYRQAPGKERELVAGISTRGGSTYYADSVKGRFTISRDNAKNTVYLQMNSLKPEDTAGYYCAAVPASYRDPMYYWGQGTQVTVSS | low polyreactivity
32 | QVQLVESGGGLVQAGGSLRLSCAASGSIFGKYALGWYRQAPGIERELVAAISGRGGGTYYADSVKGRFTISRDNAKNTVYLQVNRLNPEDTGVYYCNAYYSRLRYDYWGQGTQVTVSS | high polyreactivity
33 | QVQLVESGGGLVQAGGSLRLSCAASGSIFGKYTMGWYRQAPGKERELVAGITYRAGSTYYADSVKGRFTISRDNAKNTVYLQMNSLKPEDTAVYYCAARFYFRWYYYGSYANYWGQGTQVTVSS | high polyreactivity
34 | QVQLVESGGGLVQAGGSLRLSCAASGSIFGLYAMGWYIQAPGKERELVATISKSGVSTYYADSVKGRFTISRDNEKNTVYLQMKSLKPEVTAVYYCNADISRDNDFDYWGQGTQVTVSA | low polyreactivity
35 | QVQLVESGGGLVQAGGSLRLSCAASGSIFGLYAMGWYRQAPGKETELVAAINWNGGDTYYADSVKGRFTISRDNAKNPVYLQMNSLKPEDTAVYYCAAEQYRYGIRRRHYDYWGQGTQVTVSS | low polyreactivity
36 | QVQLVESGGGLVQAGGSLRLSCAASGSIFGLYAMGWYRQAPGNERELVAAINQSGGSTSYADSVKGRFTISRDNAKNTVYLQMNSLKPEDTAVYYCAAKRSWGATRRAYGRYDYWGQGTQVTVSS | low polyreactivity
37 | QVQLVESGGGLVQAGGSLRLSCAASGSIFGNAMGWYRQAPGKERELVAAITRGVSTYYADSVKGRFTISRDNAKNTVYLQMNSLKPEDTAVYYCNKTYVRGVHGVYLPITSYDYWGQGTQVTVSS | low polyreactivity
38 | QVQLVESGGGLVQAGGSLRLSCAASGSIFGNAMGWYRQAPGKEREVVAAISSSGSSTYYADSVKGRFTISRDNAKNTVYFQMNSLKPEDTAVYYCAKRRRSAAPKYDYWGQGTQVTVSS | high polyreactivity
39 | QVQLVESGGGLVQAGGSLRLSCAASGSIFGNNAMGWYRQARGKERELVAVITDGGNTYYADSVKGRFTISRDNAKNTVYLQMNSLKPEDTAVYYCNADWWGDSDYWGQGTQVTVSS | low polyreactivity
40 | QVQLVESGGGLVQAGGSLRLSCAASGSIFGPYAMGWYRQAPGKERELVAAITKSGGSTYYADSVKGRFTISRDNAKNTVYLQMNSLKPEDTSVYYCAADYGHEYWGQGTQVTVSS | low polyreactivity
41 | QVQLVESGGGLVQAGGSLRLSCAASGSIFGPYAMGWYRQAPGKERELVAAITSGGSTYYADSVKGRFTISRDNAKNTVYLQMNSLKPEDTAVYYCNAESYFWDFYDYDHWGQGTQVTLSS | low polyreactivity
42 | QVQLVESGGGLVQAGGSLRLSCAASGSIFGPYAMGWYRQAPGKERELVAAITWSGDSTYYADSVKGRFTISRDNAKNTVYLQMNSLKPEDTAVYYCAAETFIWGQGTQVTVSS | low polyreactivity
43 | QVQLVESGGGLVQAGGSLRLSCAASGSIFGPYVKGWYSQAPGKEREFVAAIRGSGGSTYYADSVKGRFTISRDNAKKTVYLQMNSLKPEDTAVYYCNARLKYTLYYYWGQGTQVTVSS | high polyreactivity
